Test results taken from PMC13228514 (2026).

Experiments:
Test in all cases: BLI; intact antibody
39G7 = molecular target: 39G7
8D1 = molecular target: 8D1
anti-LHFPL5 = molecular target: anti-LHFPL5

8D1, sequence (Q99PJ1 27-1462): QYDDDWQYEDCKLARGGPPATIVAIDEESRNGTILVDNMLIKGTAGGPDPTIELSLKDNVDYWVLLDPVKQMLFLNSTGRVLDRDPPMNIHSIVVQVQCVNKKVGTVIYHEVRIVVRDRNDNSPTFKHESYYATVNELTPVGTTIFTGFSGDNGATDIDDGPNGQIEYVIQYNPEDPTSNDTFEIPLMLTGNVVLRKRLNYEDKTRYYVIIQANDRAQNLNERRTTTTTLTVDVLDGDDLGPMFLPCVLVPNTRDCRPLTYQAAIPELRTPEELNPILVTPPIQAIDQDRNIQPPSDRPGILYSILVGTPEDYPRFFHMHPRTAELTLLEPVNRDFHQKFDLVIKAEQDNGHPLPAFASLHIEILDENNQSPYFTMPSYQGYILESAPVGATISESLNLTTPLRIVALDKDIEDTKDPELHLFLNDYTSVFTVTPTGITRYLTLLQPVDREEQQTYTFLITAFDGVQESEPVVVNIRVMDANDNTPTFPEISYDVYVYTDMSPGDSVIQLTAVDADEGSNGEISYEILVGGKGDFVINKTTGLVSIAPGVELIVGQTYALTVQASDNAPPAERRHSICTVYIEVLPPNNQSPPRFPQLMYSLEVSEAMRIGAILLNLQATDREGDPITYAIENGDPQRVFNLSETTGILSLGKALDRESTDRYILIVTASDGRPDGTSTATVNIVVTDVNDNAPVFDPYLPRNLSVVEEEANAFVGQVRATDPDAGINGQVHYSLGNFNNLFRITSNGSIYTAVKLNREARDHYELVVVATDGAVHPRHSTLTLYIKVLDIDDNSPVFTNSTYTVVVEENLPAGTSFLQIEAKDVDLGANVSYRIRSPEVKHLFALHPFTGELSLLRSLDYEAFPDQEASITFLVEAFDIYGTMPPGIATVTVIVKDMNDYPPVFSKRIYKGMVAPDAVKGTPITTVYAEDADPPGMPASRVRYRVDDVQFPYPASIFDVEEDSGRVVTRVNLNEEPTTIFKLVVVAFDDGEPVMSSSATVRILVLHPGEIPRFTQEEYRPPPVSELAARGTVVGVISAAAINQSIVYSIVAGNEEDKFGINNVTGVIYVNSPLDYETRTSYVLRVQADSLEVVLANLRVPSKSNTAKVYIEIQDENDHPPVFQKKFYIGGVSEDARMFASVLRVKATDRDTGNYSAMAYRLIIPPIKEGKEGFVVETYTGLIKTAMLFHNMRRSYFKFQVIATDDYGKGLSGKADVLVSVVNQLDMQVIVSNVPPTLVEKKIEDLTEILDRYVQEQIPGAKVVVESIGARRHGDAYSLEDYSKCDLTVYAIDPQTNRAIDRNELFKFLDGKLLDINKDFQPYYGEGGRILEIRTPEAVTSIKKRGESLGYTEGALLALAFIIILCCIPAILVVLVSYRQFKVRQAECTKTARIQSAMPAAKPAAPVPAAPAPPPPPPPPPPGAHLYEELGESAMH
39G7, sequence (Q99PJ1 27-1462): as above

Kd (39G7) | koff (39G7) | Kd (8D1) | koff (8D1) | Kd (anti-LHFPL5) | koff (anti-LHFPL5) | Binder
0.2 nM | 2e-05 s⁻¹ | 0.05 nM | 3e-05 s⁻¹ |  |  | recombinant protocadherin-15 (PCDH15), residues 1-1462 (EC1-EC11 and part of the cytoplasmic region) (domain or fragment) not shown
 |  |  |  | 1 nM | 5e-05 s⁻¹ | recombinant lipoma HMGIC fusion partner-like protein 5 (LHFPL5), residues 2-219 (natural protein) VKLLPAQEAAKIYHTNYVRNSRAVGVMWGTLTICFSVLVMALFIQPYWIGDSVSTPQAGYFGLFSYCVGNVLSSELICKGGPLDFSSIPSRAFKTAMFFVALAMFLIIGSIICFSLFFVCNTATVYKICAWMQLAAATGLMIGCLVYPDGWDSSEVRRMCGEQTGKYTLGHCTIRWAFMLAILSIGDALILSFLAFVLGYRQDKLLPDDYKADGNEEV
